The values that follow come from patent US20130251708A1 (ABGENOMICS COOPERATIEF U A, published 2013).

The target of assay [1] is T1, human PSGL-1 on activated primary human CD4+ T cells (human, UniProt Q14242 42-412).
T1 construct: also called P-selectin glycoprotein ligand-1; SELPLG
T1 sequence: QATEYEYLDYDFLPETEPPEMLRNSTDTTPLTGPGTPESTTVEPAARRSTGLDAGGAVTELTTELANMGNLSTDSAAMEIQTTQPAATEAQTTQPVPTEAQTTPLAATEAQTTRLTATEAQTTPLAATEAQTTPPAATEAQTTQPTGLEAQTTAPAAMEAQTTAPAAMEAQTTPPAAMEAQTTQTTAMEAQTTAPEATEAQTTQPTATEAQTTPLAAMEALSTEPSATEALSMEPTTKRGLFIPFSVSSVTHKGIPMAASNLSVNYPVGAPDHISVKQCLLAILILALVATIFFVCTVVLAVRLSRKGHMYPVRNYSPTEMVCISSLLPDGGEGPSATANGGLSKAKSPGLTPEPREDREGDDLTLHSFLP
Put plainly: flow cytometry on activated human CD4+ T cells, mean +/- SEM of 4 donors. As to the method: (§1) Anti-lysozyme IgG4, h15A7 and 15A7H antibody binding affinity to activated CD4+ T cells were determined by plotting antibody concentration versus mean fluorescence index (MFI) for each sample duplicate using XLfit (model: dose response one site, 205). EC50 values were determined for each binding curve.
Using flow cytometry, the binding of 15A7H to activated human CD4+ T-cells was determined.
(§2) EC50 values from 4 donors were used to calculate Mean+/−SEM.

Assay [2] deals with T1, human PSGL-1 on activated primary human …. Put plainly: flow cytometry on activated human CD4+ T cells, mean +/- SEM. As to the method:
as §1, §2

B1: 15A7H (antibody, human IgG4 S228P, kappa)
heavy: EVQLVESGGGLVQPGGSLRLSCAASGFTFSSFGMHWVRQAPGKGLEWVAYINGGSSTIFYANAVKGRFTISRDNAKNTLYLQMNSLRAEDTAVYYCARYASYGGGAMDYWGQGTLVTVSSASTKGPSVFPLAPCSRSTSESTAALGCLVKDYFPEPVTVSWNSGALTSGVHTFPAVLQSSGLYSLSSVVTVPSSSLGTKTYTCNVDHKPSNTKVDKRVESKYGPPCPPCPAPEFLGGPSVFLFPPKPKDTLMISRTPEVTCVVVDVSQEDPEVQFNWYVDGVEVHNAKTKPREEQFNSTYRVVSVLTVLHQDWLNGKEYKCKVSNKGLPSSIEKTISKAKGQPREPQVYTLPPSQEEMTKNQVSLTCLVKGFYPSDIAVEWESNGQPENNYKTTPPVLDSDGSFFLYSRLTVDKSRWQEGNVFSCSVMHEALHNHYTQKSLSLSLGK
light: DIQMTQSPSSLSASVGDRVTITCRSSQSIVHNDGNTYFEWYQQKPGKAPKLLIYKVSNRFSGVPSRFSGSGSGTHFTLTISSLQPEDFATYYCFQGSYVPLTFGQGTKVEIKRTVAAPSVFIFPPSDEQLKSGTASVVCLLNNFYPREAKVQWKVDNALQSGNSQESVTEQDSKDSTYSLSSTLTLSKADYEKHKVYACEVTHQGLSSPVTKSFNRGEC
notes: Humanized IgG4 kappa antibody with the Ser228->Pro228 (EU index) hinge mutation, made in CHO-DG44 cells; also called hinge mutant of h15A7; 15A7H antibody
In assay [1], B1 had a 50% effective concentration (EC50) of 0.22 nM.

B2: h15A7 (antibody, human IgG4, kappa)
heavy: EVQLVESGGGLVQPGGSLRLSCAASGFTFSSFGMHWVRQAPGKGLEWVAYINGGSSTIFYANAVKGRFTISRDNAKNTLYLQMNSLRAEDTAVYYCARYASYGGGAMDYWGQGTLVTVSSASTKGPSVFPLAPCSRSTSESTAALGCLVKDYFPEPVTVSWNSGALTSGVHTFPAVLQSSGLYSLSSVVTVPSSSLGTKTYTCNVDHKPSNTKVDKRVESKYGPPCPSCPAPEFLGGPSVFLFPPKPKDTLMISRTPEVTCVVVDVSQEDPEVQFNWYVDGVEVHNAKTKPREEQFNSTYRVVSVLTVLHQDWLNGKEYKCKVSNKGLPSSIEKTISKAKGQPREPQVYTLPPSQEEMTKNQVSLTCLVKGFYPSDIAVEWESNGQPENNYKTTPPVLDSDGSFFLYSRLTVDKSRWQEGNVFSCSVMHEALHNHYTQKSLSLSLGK
light: DIQMTQSPSSLSASVGDRVTITCRSSQSIVHNDGNTYFEWYQQKPGKAPKLLIYKVSNRFSGVPSRFSGSGSGTHFTLTISSLQPEDFATYYCFQGSYVPLTFGQGTKVEIKRTVAAPSVFIFPPSDEQLKSGTASVVCLLNNFYPREAKVQWKVDNALQSGNSQESVTEQDSKDSTYSLSSTLTLSKADYEKHKVYACEVTHQGLSSPVTKSFNRGEC
notes: Parent IgG4 kappa antibody with the wild-type hinge; also called Antibody h15A7
As for B2, the EC50 in assay [2] came to 0.27 nM.
